One block for each substance: values may come before it.
How the values were obtained:
Assay in all cases: cell-based or functional assay
[1] = target: Anti-EGFR Activatable Antibody C225v5-3954-4008 (linker form not stated)
[2] = target: Anti-EGFR Activatable Antibody c225v5-3954-2001
[3] = target: Anti-EGFR Activatable Antibody c225v5-3954-3001
[4] = target: Anti-EGFR Activatable Antibody c225v5-3954-4001LL; for MMP14 Cleavability (%): test concentration or dose not given here
[5] = target: Anti-EGFR Activatable Antibody c225v5-3954-4001SL
[6] = target: Anti-EGFR Activatable Antibody c225v5-3954-4002SL
[7] = target: Anti-EGFR Activatable Antibody c225v5-3954-4003SL
[8] = target: Anti-EGFR Activatable Antibody c225v5-3954-4004LL
[9] = target: Anti-EGFR Activatable Antibody c225v5-3954-4005SL; for MMP14 Cleavability (%): test concentration or dose not given here
[10] = target: Anti-EGFR Activatable Antibody c225v5-3954-4006LL; for MMP14 Cleavability (%): test concentration or dose not given here
[11] = target: Anti-EGFR Activatable Antibody c225v5-3954-4006SL
[12] = target: Anti-EGFR Activatable Antibody c225v5-3954-4007SL
[13] = target: Anti-EGFR Activatable Antibody c225v5-3954-4008LL
[14] = target: Anti-EGFR Activatable Antibody c225v5-3954-4009SL
[15] = target: Anti-EGFR Activatable Antibody c225v5-3954-4010SL
[16] = target: Anti-EGFR Activatable Antibody c225v5-3954-4011SL
[17] = target: Anti-EGFR Activatable Antibody c225v5-3954-4012SL
[18] = target: Anti-EGFR Activatable Antibody c225v5-3954-4014SL; for MMP14 Cleavability (%): test concentration or dose not given here
[19] = target: Anti-EGFR Activatable Antibody c225v5-3954-4015LL
[20] = target: Anti-EGFR Activatable Antibody c225v5-3954-5001; for Cleavability (%) MMP14: test concentration or dose not given here; for Cleavability (%) Matriptase: test concentration or dose not given here
[21] = target: Anti-EGFR Activatable Antibody c225v5-3954-5002; for Cleavability (%) Neutrophil Elastase: test concentration or dose not given here
[22] = target: Anti-EGFR Activatable Antibody c225v5-3954-5003; for Cleavability (%) MMP14: test concentration or dose not given here
[23] = target: Anti-EGFR Activatable Antibody c225v5-3954-5004
[24] = target: Anti-EGFR Activatable Antibody c225v5-3954-5005
[25] = target: Anti-EGFR Activatable Antibody c225v5-3954-5006; for Cleavability (%) MMP14: test concentration or dose not given here; for Cleavability (%) Neutrophil Elastase: test concentration or dose not given here
[26] = target: Anti-EGFR Activatable Antibody c225v5-3954-5007; for Cleavability (%) Matriptase: test concentration or dose not given here; for Cleavability (%) Neutrophil Elastase: test concentration or dose not given here
[27] = target: Anti-EGFR Activatable Antibody c225v5-3954-5008; for Cleavability (%) Matriptase: test concentration or dose not given here; for Cleavability (%) Neutrophil Elastase: test concentration or dose not given here
[28] = target: Anti-EGFR Activatable Antibody c225v5-3954-5009
[29] = target: Anti-EGFR Activatable Antibody c225v5-3954-5010
[30] = target: Anti-EGFR Activatable Antibody c225v5-3954-5011
[31] = target: Anti-EGFR Activatable Antibody c225v5-3954-5012
[32] = target: Anti-EGFR Activatable Antibody c225v5-3954-5013; for Cleavability (%) Matriptase: test concentration or dose not given here
[33] = target: Anti-EGFR Activatable Antibody with substrate 4001 (linker form not stated); for Cleavability (%) MMP14: test concentration or dose not given here

recombinant matriptase, sequence (Q9Y5Y6 615-855 limits assumed): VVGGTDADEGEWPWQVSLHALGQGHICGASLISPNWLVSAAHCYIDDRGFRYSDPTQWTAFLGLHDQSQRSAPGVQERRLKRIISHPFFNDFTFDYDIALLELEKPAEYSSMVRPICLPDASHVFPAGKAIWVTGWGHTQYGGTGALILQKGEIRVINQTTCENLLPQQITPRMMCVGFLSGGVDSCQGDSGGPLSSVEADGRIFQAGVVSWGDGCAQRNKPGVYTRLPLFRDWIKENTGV
recombinant neutrophil elastase, sequence (P08246 30-267 limits assumed): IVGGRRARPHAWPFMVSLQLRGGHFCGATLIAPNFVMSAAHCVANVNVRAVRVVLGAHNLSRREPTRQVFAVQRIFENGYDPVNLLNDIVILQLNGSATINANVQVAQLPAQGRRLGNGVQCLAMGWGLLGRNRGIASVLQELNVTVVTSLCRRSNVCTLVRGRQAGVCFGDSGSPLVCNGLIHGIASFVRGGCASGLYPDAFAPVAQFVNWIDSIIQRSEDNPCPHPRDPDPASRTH
recombinant MMP2, sequence (P08253 110-660 limits assumed): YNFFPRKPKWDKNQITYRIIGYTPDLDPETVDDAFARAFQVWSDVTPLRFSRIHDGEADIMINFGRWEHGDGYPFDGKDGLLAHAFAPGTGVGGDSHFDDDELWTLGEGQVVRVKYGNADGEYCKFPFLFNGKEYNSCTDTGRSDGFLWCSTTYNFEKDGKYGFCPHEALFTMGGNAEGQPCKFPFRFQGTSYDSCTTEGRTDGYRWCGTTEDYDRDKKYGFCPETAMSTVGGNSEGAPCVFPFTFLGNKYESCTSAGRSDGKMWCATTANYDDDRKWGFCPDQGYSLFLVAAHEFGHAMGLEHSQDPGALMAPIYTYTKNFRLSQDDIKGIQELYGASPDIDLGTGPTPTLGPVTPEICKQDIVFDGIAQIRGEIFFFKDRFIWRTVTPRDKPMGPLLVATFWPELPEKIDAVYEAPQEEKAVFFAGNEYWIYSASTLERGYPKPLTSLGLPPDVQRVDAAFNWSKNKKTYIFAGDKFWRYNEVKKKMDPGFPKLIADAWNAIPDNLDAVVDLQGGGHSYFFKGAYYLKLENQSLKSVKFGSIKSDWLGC

Cleavability (%) MMP14 [1]: 6% | Kcat/Km (M^-1 s^-1) MMP14 [1]: 230 M⁻¹ s⁻¹ | Cleavability (%) MMP14 [2]: 58% | Kcat/Km (M^-1 s^-1) MMP14 [2]: 6330 M⁻¹ s⁻¹ | Kcat/Km (M^-1 s^-1) MMP14 [3]: 17000 M⁻¹ s⁻¹ | MMP14 Cleavability (%) [4]: 100% | MMP14 Cleavability (%) [5]: 96.5% | MMP14 Cleavability (%) [6]: 85.9% | MMP14 Cleavability (%) [7]: 53.1% | MMP14 Cleavability (%) [8]: 46.2% | MMP14 Cleavability (%) [9]: 24.4% | MMP14 Cleavability (%) [10]: 84.2% | MMP14 Cleavability (%) [11]: 85.7% | MMP14 Cleavability (%) [12]: 0% | MMP14 Cleavability (%) [13]: 0% | MMP14 Cleavability (%) [14]: 0% | MMP14 Cleavability (%) [15]: 0% | MMP14 Cleavability (%) [16]: 9.9% | MMP14 Cleavability (%) [17]: 0% | MMP14 Cleavability (%) [18]: 30.5% | MMP14 Cleavability (%) [19]: 0% | Cleavability (%) MMP14 [20]: 76% | Cleavability (%) MMP14 [21]: 58% | Cleavability (%) MMP14 [22]: 20% | Cleavability (%) MMP14 [23]: 19% | Cleavability (%) MMP14 [24]: 34% | Cleavability (%) MMP14 [25]: 6% | Kcat/Km (M^-1 s^-1) MMP14 [25]: 564 M⁻¹ s⁻¹ | Cleavability (%) MMP14 [26]: 90% | Kcat/Km (M^-1 s^-1) MMP14 [26]: 9250 M⁻¹ s⁻¹ | Cleavability (%) MMP14 [27]: 55% | Cleavability (%) MMP14 [28]: 9% | Cleavability (%) MMP14 [29]: 11% | Cleavability (%) MMP14 [30]: 7% | Kcat/Km (M^-1 s^-1) MMP14 [30]: 444 M⁻¹ s⁻¹ | Cleavability (%) MMP14 [31]: 72% | Cleavability (%) MMP14 [32]: 78% | Kcat/Km (M^-1 s^-1) MMP14 [32]: 7770 M⁻¹ s⁻¹ | Cleavability (%) MMP14 [33]: 77% | Kcat/Km (M^-1 s^-1) MMP14 [33]: 6010 M⁻¹ s⁻¹
Substance: recombinant MMP14 (from UniProt P50281 112-538) (enzyme)

Cleavability (%) Matriptase [1]: 40% | Kcat/Km (M^-1 s^-1) Matriptase [1]: 476 M⁻¹ s⁻¹ | Cleavability (%) Matriptase [2]: 53% | Kcat/Km (M^-1 s^-1) Matriptase [2]: 2550 M⁻¹ s⁻¹ | Kcat/Km (M^-1 s^-1) Matriptase [3]: 5350 M⁻¹ s⁻¹ | Cleavability (%) Matriptase [20]: 100% | Cleavability (%) Matriptase [21]: 100% | Cleavability (%) Matriptase [22]: 99% | Cleavability (%) Matriptase [23]: 75% | Cleavability (%) Matriptase [24]: 6% | Cleavability (%) Matriptase [25]: 100% | Kcat/Km (M^-1 s^-1) Matriptase [25]: 5370 M⁻¹ s⁻¹ | Cleavability (%) Matriptase [26]: 100% | Kcat/Km (M^-1 s^-1) Matriptase [26]: 27200 M⁻¹ s⁻¹ | Cleavability (%) Matriptase [27]: 98% | Cleavability (%) Matriptase [28]: 100% | Cleavability (%) Matriptase [29]: 0% | Cleavability (%) Matriptase [30]: 80% | Kcat/Km (M^-1 s^-1) Matriptase [30]: 1430 M⁻¹ s⁻¹ | Cleavability (%) Matriptase [31]: 0% | Cleavability (%) Matriptase [32]: 0% | Kcat/Km (M^-1 s^-1) Matriptase [32]: 0 M⁻¹ s⁻¹ | Cleavability (%) Matriptase [33]: 0% | Kcat/Km (M^-1 s^-1) Matriptase [33]: 0 M⁻¹ s⁻¹
Substance: recombinant matriptase (from UniProt Q9Y5Y6 615-855) (enzyme)

Cleavability (%) MMP9 [1]: 100% | Kcat/Km (M^-1 s^-1) MMP9 [1]: 18700 M⁻¹ s⁻¹ | Cleavability (%) MMP9 [2]: 22% | Kcat/Km (M^-1 s^-1) MMP9 [2]: 394 M⁻¹ s⁻¹ | Kcat/Km (M^-1 s^-1) MMP9 [3]: 50500 M⁻¹ s⁻¹ | MMP9 Cleavability (%) [4]: 100% | MMP9 Cleavability (%) [5]: 94.5% | MMP9 Cleavability (%) [6]: 87.5% | MMP9 Cleavability (%) [7]: 6% | MMP9 Cleavability (%) [8]: 29.8% | MMP9 Cleavability (%) [9]: 70.5% | MMP9 Cleavability (%) [10]: 90.8% | MMP9 Cleavability (%) [11]: 92.9% | MMP9 Cleavability (%) [12]: 69.5% | MMP9 Cleavability (%) [13]: 55.2% | MMP9 Cleavability (%) [14]: 22.1% | MMP9 Cleavability (%) [15]: 18% | MMP9 Cleavability (%) [16]: 78.8% | MMP9 Cleavability (%) [17]: 56.5% | MMP9 Cleavability (%) [18]: 0% | MMP9 Cleavability (%) [19]: 90% | Cleavability (%) MMP9 [20]: 76% | Cleavability (%) MMP9 [21]: 37% | Cleavability (%) MMP9 [22]: 100% | Cleavability (%) MMP9 [23]: 86% | Cleavability (%) MMP9 [24]: 72% | Cleavability (%) MMP9 [25]: 81% | Kcat/Km (M^-1 s^-1) MMP9 [25]: 33900 M⁻¹ s⁻¹ | Cleavability (%) MMP9 [26]: 77% | Kcat/Km (M^-1 s^-1) MMP9 [26]: 25300 M⁻¹ s⁻¹ | Cleavability (%) MMP9 [27]: 100% | Cleavability (%) MMP9 [28]: 78% | Cleavability (%) MMP9 [29]: 0% | Cleavability (%) MMP9 [30]: 55% | Kcat/Km (M^-1 s^-1) MMP9 [30]: 4180 M⁻¹ s⁻¹ | Cleavability (%) MMP9 [31]: 52% | Cleavability (%) MMP9 [32]: 62% | Kcat/Km (M^-1 s^-1) MMP9 [32]: 10400 M⁻¹ s⁻¹ | Cleavability (%) MMP9 [33]: 100% | Kcat/Km (M^-1 s^-1) MMP9 [33]: 8840 M⁻¹ s⁻¹
Substance: recombinant MMP9 (from UniProt P14780 107-707) (enzyme)

Cleavability (%) Legumain [1]: 0% | Cleavability (%) Legumain [2]: 5% | Cleavability (%) Legumain [3]: 0% | Cleavability (%) Legumain [20]: 0% | Cleavability (%) Legumain [21]: 21% | Cleavability (%) Legumain [22]: 0% | Cleavability (%) Legumain [23]: 27% | Cleavability (%) Legumain [24]: 0% | Cleavability (%) Legumain [25]: 0% | Cleavability (%) Legumain [26]: 0% | Cleavability (%) Legumain [27]: 0% | Cleavability (%) Legumain [28]: 0% | Cleavability (%) Legumain [29]: 0% | Cleavability (%) Legumain [30]: 0% | Cleavability (%) Legumain [31]: 7% | Cleavability (%) Legumain [32]: 9% | Cleavability (%) Legumain [33]: 0%
Substance: recombinant legumain (from UniProt Q99538 18-323) (enzyme)

Kcat/Km (M^-1 s^-1) MMP2 [1]: 13000 M⁻¹ s⁻¹ | Kcat/Km (M^-1 s^-1) MMP2 [2]: 13200 M⁻¹ s⁻¹ | Kcat/Km (M^-1 s^-1) MMP2 [3]: 310000 M⁻¹ s⁻¹ | Kcat/Km (M^-1 s^-1) MMP2 [25]: 36900 M⁻¹ s⁻¹ | Kcat/Km (M^-1 s^-1) MMP2 [26]: 98300 M⁻¹ s⁻¹ | Kcat/Km (M^-1 s^-1) MMP2 [30]: 3380 M⁻¹ s⁻¹ | Kcat/Km (M^-1 s^-1) MMP2 [32]: 76500 M⁻¹ s⁻¹ | Kcat/Km (M^-1 s^-1) MMP2 [33]: 57600 M⁻¹ s⁻¹
Substance: recombinant MMP2 (from UniProt P08253 110-660) (enzyme)

Cleavability (%) Neutrophil Elastase [1]: 28% | Cleavability (%) Neutrophil Elastase [2]: 18% | Kcat/Km (M^-1 s^-1) Neutrophil Elastase [2]: 3170 M⁻¹ s⁻¹ | Cleavability (%) Neutrophil Elastase [3]: 52% | Kcat/Km (M^-1 s^-1) Neutrophil Elastase [3]: 19100 M⁻¹ s⁻¹ | Cleavability (%) Neutrophil Elastase [20]: 88% | Cleavability (%) Neutrophil Elastase [21]: 67% | Cleavability (%) Neutrophil Elastase [22]: 77% | Cleavability (%) Neutrophil Elastase [23]: 84% | Cleavability (%) Neutrophil Elastase [24]: 81% | Cleavability (%) Neutrophil Elastase [25]: 30% | Cleavability (%) Neutrophil Elastase [26]: 74% | Kcat/Km (M^-1 s^-1) Neutrophil Elastase [26]: 24200 M⁻¹ s⁻¹ | Cleavability (%) Neutrophil Elastase [27]: 66% | Cleavability (%) Neutrophil Elastase [28]: 31% | Cleavability (%) Neutrophil Elastase [29]: 100% | Cleavability (%) Neutrophil Elastase [30]: 100% | Kcat/Km (M^-1 s^-1) Neutrophil Elastase [30]: 665000 M⁻¹ s⁻¹ | Cleavability (%) Neutrophil Elastase [31]: 55% | Cleavability (%) Neutrophil Elastase [32]: 56% | Cleavability (%) Neutrophil Elastase [33]: 37%
Substance: recombinant neutrophil elastase (from UniProt P08246 30-267) (enzyme)
